The values below come from US20210054071A1 (NANJING LEGEND BIOTECH, published 2021).

The target in assay [1] is T1, human TIGIT expressed on CHO-K1 cells (human, UniProt Q495A1 22-244).
T1 construct: also called CHO/human TIGIT cells; CHO-TIGIT cells
T1 sequence: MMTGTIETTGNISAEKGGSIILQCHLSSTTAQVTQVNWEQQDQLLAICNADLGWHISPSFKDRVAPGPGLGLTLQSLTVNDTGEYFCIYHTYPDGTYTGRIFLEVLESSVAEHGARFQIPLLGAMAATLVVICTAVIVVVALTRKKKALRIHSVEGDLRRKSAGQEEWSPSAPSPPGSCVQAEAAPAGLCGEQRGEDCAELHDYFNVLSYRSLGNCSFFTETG
Put plainly: FACS, CHO-K1 cells expressing human TIGIT.
Experimental: (§1) To determine cell binding EC₅₀, CHO—K1 cells expressing human, cynomolgus or murine TIGIT were harvested and incubated with gradient concentrations of anti-TIGIT sdAb-Fc fusion proteins, followed by fluorophore-labeled secondary antibodies against human Fc. […] Samples were analyzed with flow cytometry.

In assay [2] the target is T2, murine TIGIT expressed on CHO-K1 cells (murine, UniProt P86176 29-249).
T2 construct: whole, on cells; also called CHO/mouse TIGIT; mouse TIGIT expressed on CHO cells
T2 sequence (looked up): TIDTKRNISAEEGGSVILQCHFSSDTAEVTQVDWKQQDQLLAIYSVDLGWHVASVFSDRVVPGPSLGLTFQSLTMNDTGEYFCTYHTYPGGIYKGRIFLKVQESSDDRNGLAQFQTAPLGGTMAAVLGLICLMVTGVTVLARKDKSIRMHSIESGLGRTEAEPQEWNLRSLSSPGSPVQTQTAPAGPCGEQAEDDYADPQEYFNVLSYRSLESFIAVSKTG
Put plainly: FACS, CHO-K1 cells expressing murine TIGIT. On the technique in general: A flow cytometer gives signals particle by particle.
Experimental: as §1

For assay [3], the target named is T1, human TIGIT expressed on CHO-K1 cells. Put plainly: FACS competition, biotinylated CD155-Fc on CHO/human TIGIT cells.
Experimental: as §1
Another assay addresses T3, murine TIGIT-Fc (murine, UniProt P86176 29-148, limits assumed).
T3 construct: not shown: Fc part, detected with a secondary antibody against human Fc
T3 sequence (looked up): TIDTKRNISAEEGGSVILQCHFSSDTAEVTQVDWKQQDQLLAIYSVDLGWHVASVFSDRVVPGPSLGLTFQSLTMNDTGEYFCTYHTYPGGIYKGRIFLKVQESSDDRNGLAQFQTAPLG
Put plainly: FACS competition, murine TIGIT-Fc binding to CT26 cells (murine CD155).

B1: 10A7 mAb (antibody, human IgG1, kappa, V domains shown)
VH: EVQLVESGGGLTQPGKSLKLSCEASGFTFSSFTMHWVRQSPGKGLEWVAFIRSGSGIVFYADAVRGRFTISRDNAKNLLFLQMNDLKSEDTAMYYCARRPLGHNTFDSWGQGTLVTVSS
VL: DIVMTQSPSSLAVSPGEKVTMTCKSSQSLYYSGVKENLLAWYQQKPGQSPKLLIYYASIRFTGVPDRFTGSGSGTDYTLTITSVQAEDMGQYFCQQGINNPLTFGDGTKLEIKR
Take B1: the EC50 in assay [1] was found to be 4.06 nM; in assay [2], 0.709 nM; in assay [3] it was 5.27 nM; with murine TIGIT-Fc, 71.3 nM.

The EC50 is the concentration needed to bring the measured effect to its halfway point.
